Reference: publication PMC5563082

B1: human MDGA2 extracellular domain (MDGA2_(ECTO); Gln21-Lys927) (domain or fragment)
chain: QGVYAPPTVRIVHSGLACNIEEERYSERVYTIREGETLELTCLVTGHPRPQIRWTKTAGSASDRFQDSSVFNETLRITNIQRHQGGRYYCKAENGLGSPAIKSIRVDVYYLDDPVVTVHQSIGEAKEQFYYERTVFLRCVANSNPPVRYSWRRGQEVLLQGSDKGVEIYEPFFTQGETKILKLKNLRPQDYANYSCIASVRNVCNIPDKMVSFRLSNKTASPSIKLLVDDPIVVNPGEAITLVCVTTGGEPAPSLTWVRSFGTLPEKTVLNGGTLTIPAITSDDAGTYSCIANNNVGNPAKKSTNIIVRALKKGRFWITPDPYHKDDNIQIGREVKISCQVEAVPSEELTFSWFKNGRPLRSSERMVITQTDPDVSPGTTNLDIIDLKFTDFGTYTCVASLKGGGISDISIDVNISSSTVPPNLTVPQEKSPLVTREGDTIELQCQVTGKPKPIILWSRADKEVAMPDGSMQMESYDGTLRIVNVSREMSGMYRCQTSQYNGFNVKPREALVQLIVQYPPAVEPAFLEIRQGQDRSVTMSCRVLRAYPIRVLTYEWRLGNKLLRTGQFDSQEYTEYAVKSLSNENYGVYNCSIINEAGAGRCSFLVTGKAYAPEFYYDTYNPVWQNRHRVYSYSLQWTQMNPDAVDRIVAYRLGIRQAGQQRWWEQEIKINGNIQKGELITYNLTELIKPEAYEVRLTPLTKFGEGDSTIRVIKYSAPVNPHLREFHCGFEDGNICLFTQDDTDNFDWTKQSTATRNTKYTPNTGPNADRSGSKEGFYMYIETSRPRLEGEKARLLSPVFSIAPKNPYGPTNTAYCFSFFYHMYGQHIGVLNVYLRLKGQTTIENPLWSSSGNKGQRWNEAHVNIYPITSFQLIFEGIRGPGIEGDIAIDDVSIAEGECAKQDLATK
B2: human MDGA1 extracellular domain (MDGA1_(ECTO); Gln19-Lys925) (domain or fragment)
chain: QGVYAPAQAQIVHAGQACVVKEDNISERVYTIREGDTLMLQCLVTGHPRPQVRWTKTAGSASDKFQETSVFNETLRIERIARTQGGRYYCKAENGVGVPAIKSIRVDVQYLDEPMLTVHQTVSDVRGNFYQEKTVFLRCTVNSNPPARFIWKRGSDTLSHSQDNGVDIYEPLYTQGETKVLKLKNLRPQDYASYTCQVSVRNVCGIPDKAITFRLTNTTAPPALKLSVNETLVVNPGENVTVQCLLTGGDPLPQLQWSHGPGPLPLGALAQGGTLSIPSVQARDSGYYNCTATNNVGNPAKKTVNLLVRSMKNATFQITPDVIKESENIQLGQDLKLSCHVDAVPQEKVTYQWFKNGKPARMSKRLLVTRNDPELPAVTSSLELIDLHFSDYGTYLCMASFPGAPVPDLSVEVNISSETVPPTISVPKGRAVVTVREGSPAELQCEVRGKPRPPVLWSRVDKEAALLPSGLPLEETPDGKLRLERVSRDMSGTYRCQTARYNGFNVRPREAQVQLNVQFPPEVEPSSQDVRQALGRPVLLRCSLLRGSPQRIASAVWRFKGQLLPPPPVVPAAAEAPDHAELRLDAVTRDSSGSYECSVSNDVGSAACLFQVSAKAYSPEFYFDTPNPTRSHKLSKNYSYVLQWTQREPDAVDPVLNYRLSIRQLNQHNAVVKAIPVRRVEKGQLLEYILTDLRVPHSYEVRLTPYTTFGAGDMASRIIHYTEPINSPNLSDNTCHFEDEKICGYTQDLTDNFDWTRQNALTQNPKRSPNTGPPTDISGTPEGYYMFIETSRPRELGDRARLVSPLYNASAKFYCVSFFYHMYGKHIGSLNLLVRSRNKGALDTHAWSLSGNKGNVWQQAHVPISPSGPFQIIFEGVRGPGYLGDIAIDDVTLKKGECPRKQTDPNK

Key:
[1] = biological target: human NL1(–A+B)_(ECTO), immobilised for SPR (human); assay: SPR; biotinylated NL_(ECTO)-Avitag variants captured from dialysed conditioned medium on streptavidin CM5 chip (500 RU; 550 RU for the ΔSite series; 1000 RU for NL3 and NL3 Arg451Cys in the R451C series); β-NRX1_(LNS6)(±4), MDGA1_(ECTO), MDGA2_(ECTO) injected, 15 concentrations, two-fold series from 50 μM; TBS-CTB (10 mM Tris pH 7.4, 150 mM NaCl, 3 mM CaCl2, 0.005% Tween-20, 1.0 g/L BSA); equilibrium analysis, 1:1 Langmuir model
human NL1(–A+B)_(ECTO), immobilised for SPR (human), sequence (Q8N2Q7 whole entry): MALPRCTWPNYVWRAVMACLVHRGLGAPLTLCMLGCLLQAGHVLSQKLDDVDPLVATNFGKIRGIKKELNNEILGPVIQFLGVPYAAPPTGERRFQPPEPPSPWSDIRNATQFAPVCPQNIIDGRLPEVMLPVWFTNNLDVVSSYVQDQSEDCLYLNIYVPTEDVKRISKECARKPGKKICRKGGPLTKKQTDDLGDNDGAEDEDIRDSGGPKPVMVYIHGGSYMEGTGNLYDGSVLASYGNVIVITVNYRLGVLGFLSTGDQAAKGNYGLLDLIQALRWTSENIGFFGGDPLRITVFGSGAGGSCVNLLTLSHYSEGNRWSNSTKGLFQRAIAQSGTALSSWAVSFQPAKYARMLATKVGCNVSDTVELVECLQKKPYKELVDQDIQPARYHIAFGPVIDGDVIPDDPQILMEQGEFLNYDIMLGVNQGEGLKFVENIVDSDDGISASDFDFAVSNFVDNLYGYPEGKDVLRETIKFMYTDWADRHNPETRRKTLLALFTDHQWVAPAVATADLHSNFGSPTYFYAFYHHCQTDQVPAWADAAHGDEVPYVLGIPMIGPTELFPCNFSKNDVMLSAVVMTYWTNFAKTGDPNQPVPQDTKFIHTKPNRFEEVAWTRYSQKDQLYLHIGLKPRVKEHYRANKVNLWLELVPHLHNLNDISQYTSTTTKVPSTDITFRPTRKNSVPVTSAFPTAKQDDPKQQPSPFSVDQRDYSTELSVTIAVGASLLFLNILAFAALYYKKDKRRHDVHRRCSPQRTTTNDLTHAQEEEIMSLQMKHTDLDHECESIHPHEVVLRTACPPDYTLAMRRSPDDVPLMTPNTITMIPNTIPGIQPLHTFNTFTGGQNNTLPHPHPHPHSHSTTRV

[2] = biological target: human NL1(–A–B)_(ECTO), biotinylated and immobilised for SPR (human); assay: as above
human NL1(–A–B)_(ECTO), biotinylated and immobilised for SPR (human), sequence (Q8N2Q7 whole entry): as above

Row | Binder | fold weaker than with NL1(–A–B) (ECTO) [1] [fold] | Kd [2] [nM]
1 | B1 | 7 | 1000
2 | B2 | 7 | 2000
